Test [1] has as its system MUC1-positive T47D breast cancer cells. Kind of test: RT-PCR of cancer stem cell markers and chromatin rearrangement factors in T47D cells cultured in serum-free minimal media with agent. The class given is cell-based, human. As for the experimental part: Example 3: Agents that are able to maintain stem cells in the naïve state transform cancer cells into cancer stem cells wherein only a small number of cells are required for engraftment. Cancer cells were cultured according to standard practice. In the controls, the cancer cells were cultured in their normal media: RPMI for T47D breast cancer cells, DU145 and PC3 prostate cancer cells. However, the test agents, recombinant proteins human NME1 dimers, bacterial HSP593 NME1 dimers, human NME7-AB and 2i, were added to a serum-free minimal media to eliminate potential interference from the many growth factors and cytokines in serum.
Serum-free Minimal Media 500 mL includes the following components: 394 mL DMEM/F12, GlutaMAX; 100 mL Knockout™ Serum Replacement; 5.0 mL 100×MEM Non-essential Amino Acid Solution; 0.9 mL P-mercaptoethanol, 55 mM stock.
To this serum-free minimal media, rhNME1 (aka NM23) was added to a final concentration of 8 nM, or bacterial HSP593 recombinant NME1 was added to a final concentration of 8 nM, or rhNME7-AB was added to a final concentration of 4 nM, or 2i inhibitors, PD0325901 and CHIR99021, which inhibit the MAP kinase pathway and GSK3, respectively, were added to a final concentration of 3 μM and 1 μM.
When a rho kinase inhibitor, “Ri” or “ROCi”, was added it was Y27632 from Stemgent (Cambridge, Mass.), added immediately before use to a final concentration of 10 uM.
Example 3a: Breast cancer T47D cells were cultured either in the traditional RPMI growth media or in a minimal stem cell media to which was added either human NME1 dimers, also known as NM23-H1, bacterial HSP593 NME1 dimers, human NME7-AB, or kinase inhibitors known as ‘2i’. What these agents have in common is that they are each able to promote the growth of stem cells in the naive state or are able to revert primed state stem cells to the less mature naive state. We observed that some of the T47D cancer cells cultured in any of these agents became non-adherent. These ‘floaters’ were also morphologically different. The addition of a rho kinase inhibitor, called ‘Ri’ or ‘ROCP here caused most of the cells to remain attached to the surface. […] When a rho kinase inhibitor is added, all the cells remain attached but the RT-PCR measurements indicate that the resultant measure is of a mixture of the cells that were transformed and those that were not or were not yet.
Example 3c: In this example, the effect of ‘2i’ inhibitors on cancer cells was tested. Recall that 2i is the name given to 2 small molecules, […] that inhibit the MAP kinase pathway and GSK3 respectively. […] In this experiment, we cultured MUCl-positive T47D breast cancer cells in minimal media to which was added either 2i or NME7-AB.

For the next test, the system named is human fibroblasts. Kind of test: RT-PCR of stem/cancer markers and chromatin rearrangement factors in fibroblasts cultured with NME proteins. To be noted: after 15-20 days in culture. The class given is cell-based. As to the method: Agents that are able to maintain stem cells in the naive state are also able to transform somatic cells to a cancer or stem-like state. Human NME1 dimer or human NME7 are able to make somatic cells revert to a less mature state, expressing stem and cancer cell markers. Bacterial NME from HSP 593 was tested alongside the human homologs to determine if it could mimic their function by being able to revert somatic cells to a cancer-like state. Human fibroblasts were cultured in a serum-free minimal base media with either HSP 593, human NME1 dimers or human NME7-AB as the only growth factor or cytokine. […] Recalling that stem cells and metastatic cancer cells can grow anchorage-independently, we repeated the experiments but this time a rho kinase inhibitor was added to one set of cells to make the cells adhere to the surface. […] Photos of the experiment show the dramatic change in morphology as the fibroblasts revert when cultured in human or bacterial NME, FIGS. 52-59. The relative order of efficiency of reverting somatic cells to a less mature state was NME7>NME1 dimers >NME1 bacterial. […] However, Bacterial NME from HSP 593 apparently up-regulates expression of human NME7 and NME1.
Example 3d: In this example, fibroblast cells were cultured in the presence of recombinant human NME1/NM23 dimers, bacterial HSP593 NME1 dimers or NME7-AB. The fibroblasts were cultured in their normal media as a control, which is for 500 mL, 445 mL DMEM high glucose base media, 5 mL GlutaMAX and 50 mL of fetal bovine serum (FBS). After 15-20 days in culture with either NME1/NM23 dimers, bacterial HSP593 NME1 dimers or NME7-AB, the morphology of the cells completely changed so that they no longer were recognizable as fibroblasts. […] Here, ‘minus ROCi’ refers to cells that became non-adherent and floated off the surface.

Test [2] has as its system Human HES-3 embryonic stem cells. Nature of the test: Human embryonic stem cell culture with NME protein as only growth factor. It counts as cell-based. To be noted: serum-free minimal base media, agent as the only growth factor or cytokine. An excerpt:
Factors that are able to maintain stem cells in the naive state are also able to transform cells to a cancer-like or stem-like state and are also able to transform cancer cells to a cancer stem cell state or a more metastatic state. Herein, we have shown several examples of bacterial NME1 being able to function like human NME1 dimers, which are also able to function like NME7 or NME7-AB. However, the primary example that these factors function in a very similar way is their ability to promote the growth of stem cells, inhibit differentiation and maintain them in the naive state. […] Human HES-3 embryonic stem cells were cultured in a serum-free minimal base media with either HSP 593, human NME1 or NME7-dimers or human NME7-AB as the only growth factor or cytokine. […] Several examples have been presented here that indicate that contacting cells with an agent or agents that are able to revert stem cells from the primed state to the less mature naive state are also able to revert a wide variety of cell types to a less mature state: somatic cells to stem or progenitor cells or cancer cells to more metastatic state also called cancer stem cell state. Therefore, the invention is not meant to be limited to a specific cell type or a specific cancer cell type.

[3] abbreviates: serum-free minimal media with agent vs RPMI, FIG. 6.
The mark [4] stands for this setting: summary statement, cells not named.

B1: NME7-AB: recombinant human NME7 variant (A and B domains, SEQ ID NO:39) secreted as a monomer; 'NME7' in the experiments means this protein (protein)
chain: MEKTLALIKPDAISKAGEIIEIINKAGFTITKLKMMMLSRKEALDFHVDHQSRPFFNELIQFITTGPIIAMEILRDDAICEWKRLLGPANSGVARTDASESIRALFGTDGIRNAAHGPDSFASAAREMELFFPSSGGCGPANTAKFTNCTCCIVKPHAVSEGLLGKILMAIRDAGFEISAMQMFNMDRVNVEEFYEVYKGVVTEYHDMVTEMYSGPCVAMEIQQNNATKTFREFCGPADPEIARHLRPGTLRAIFGKTKIQNAVHCTDLPEDGLLEVQYFFKILDN
modifications: Human NME7-AB
notes: 'NME7' in the experiments means this protein
As for B1, the “expression of NANOG, KLF2, KLF4 and TBX3” value in test [1] (FIG. 6) is recorded as “modest increases”. Moreover, in test [1] (FIG. 7), the “expression of CDH1 (E-cadherin), MUC1 and NANOG” value was “increases”; the “expression of CXCR4, SOX2 and OCT4” value is listed as “dramatic increases”; the “expression of stem cell markers KLF2 and KLF4” value is listed as “modest increases”. For the same molecule, the “expression level of the cancer stem cell markers” value in test [1] (FIG. 9 and FIG. 10, combinations with 2i versus NME7-AB alone) is “even higher expression level”. Also, the “expression of MBD3, CHD4, BRD4 and JMJD6” value in test [1] (cancer cells cultured in agent, FIG. 13, FIG. 14) is recorded as “naturally suppressed”. The “overexpression of metastasis receptor CXCR4” value in test [1] (floaters after seven (7) days in recombinant human NME7-AB, FIG. 21 legend) was “more than 100 fold”. Further, the “expression of CXCR4 over control cells cultured in RPMI media” value in test [1] (floating cells after 7-10 days in minimal media with 4 nM rhNME7-AB, cells used for implantation) is 130 times. Further, the “expression of chromatin rearrangement factors MBD3 and CHD4” value in test [1] (minimal media with agent, FIG. 13, FIG. 14) was “suppressed expression”. The “expression of metastatic receptor CXCR4 relative to T47D cells in normal growth media” value in test [1] (serum-free minimal media with agent as single growth factor vs RPMI, FIG. 6) is approximately 200 times. The “CDH1 (E-cadherin) expression increase” value in test [1] (serum-free minimal media with agent vs RPMI) was “about 10 fold”. In test [1] (setting [3]), the MUC1 expression increase entry was “about 10 fold”, the OCT4 expression increase entry was “about 50 times” and the SOX2 expression increase is approximately 200 times. Besides, in test [1] (setting [4]), the “up-regulation of CXCR4” value was determined as 200 ×, the “up-regulation of KLF4” value worked out at 4 ×, the “up-regulation of MUC1” value is listed as 10 × and the “up-regulation of SOX2” value is more than 150 ×. Further, the “expression of stem cell marker genes OCT4 and NANOG” value with human fibroblasts (FIG. 15) was “greatly increased expression”. Besides, in the test with human fibroblasts (FIG. 16), the “expression of BRD4, JMJD6, MBD3 and CHD4” value is “decreased expression”. In addition, the “support of human stem cell growth” value in test [2] is “fully supported human stem cell growth”.

The record behind these values is US20220193270A1, “METHOD FOR ENHANCING TUMOR GROWTH” (MINERVA BIOTECHNOLOGIES CORPORATION, priority 2013, published 2022).
